The results in this text go back to US20260152568A1 (NECTIN THERAPEUTICS, published 2026).

Residue numbers refer to the chain shown, from its start. Names may count otherwise.

To fix the notation:
T1: human PVR (SPR of the humanized variants, Example 5) (human, UniProt P15151 21-343)
T1 sequence: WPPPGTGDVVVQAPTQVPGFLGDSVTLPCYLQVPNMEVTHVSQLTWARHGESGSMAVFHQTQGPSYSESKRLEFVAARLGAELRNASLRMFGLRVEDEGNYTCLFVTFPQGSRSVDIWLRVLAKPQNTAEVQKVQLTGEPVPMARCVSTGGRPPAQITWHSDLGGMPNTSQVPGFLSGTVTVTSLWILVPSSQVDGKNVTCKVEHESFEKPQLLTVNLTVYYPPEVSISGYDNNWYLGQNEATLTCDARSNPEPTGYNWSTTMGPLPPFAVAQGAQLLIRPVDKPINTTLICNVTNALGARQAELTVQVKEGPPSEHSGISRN

B1: humanized 5B9 variant VH3/VK2 (antibody, V domains shown)
VH: QVQLVQSGAEVKKPGASVKVSCKATGYTFSNYWIEWIKQAPGQGLEWIGEIFPGSGRINFNEKFKGRVTFTADTSISTTYMELSRLRSDDTAVYYCARTKIYGNSFDYWGQGTLVTVSS
VL: DIQMTQSPSSLSASVGDRVTITCKASQDVGTAVVWYQQKPGKAPKLLIYWASSRHEGVPDRFSGSGSGTDFTLTISSLQPEDFADYFCQQYSRYPLTFGQGTKLEIK
B2: humanized 5B9 variant VH1/VK1 (antibody, V domains shown)
VH: B1 VH with V11L, V20I, V68A, S77D, E82Q, R85S, R87T, T91S, L114T
VL: B1 VL with Q3M, S10F, S63T, P80S
B3: IgG4(S241P)_N56E_VH1/Vκ4 (antibody, V domains shown)
VH: B1 VH with V11L, V20I, V68A, S77D, E82Q, R85S, R87T, T91S, L114T
VL: B1 VL with K24R, V34A, L46S, D60S, D85T
notes: humanized 5B9 variant with Vk4; also called VH1/Vk4
B4: IgG4(S241P)_N56E_VH0/Vκ1 (antibody, V domains shown)
VH: QVQLQQSGAELMKPGASVKISCKATGYTFSNYWIEWIKQRPGHGLEWIGEIFPGSGRINFNEKFKGKATFTADTSSDTTYMQLSSLTSADSAVYYCARTKIYGNSFDYWGQGTTLTVSP
VL: B1 VL with Q3M, S10F, S63T, P80S
notes: half-humanized control pairing; also called VH0/Vk1
B5: humanized 5B9 variant VH2/VK3 (antibody, V domains shown)
VH: B1 VH with V20I, V68A, S77D
VL: B1 VL with K24R, D60S, D85T
B6: humanized 5B9 variant VH4/VK3 (antibody, V domains shown)
VH: B1 VH with I37V, K38R
VL: B1 VL with K24R, D60S, D85T
B7: humanized 5B9 variant VH2/VK2 (antibody, V domains shown)
VH: B1 VH with V20I, V68A, S77D
VL: B1 VL
B8: humanized 5B9 variant VH3/VK3 (antibody, V domains shown)
VH: B1 VH
VL: B1 VL with K24R, D60S, D85T
B9: IgG4(S241P)_N56E_VH1/Vκ0 (antibody, V domains shown)
VH: B4 VH with Q5V, M12K, R40A, H43Q, K67R, S76I, A89D, L115V, P119S
VL: DIMMTQSHKFMSTSVGDRVNITCKASQDVGTAVVWYQQKPGQSPKLLIYWASSRHEGVPDRFTGSGSGTDFTLTISNVQSEDLSDYFCQQYSRYPLTFGAGTKLELK
notes: half-humanized control pairing; also called VH1/Vk0
B10: humanized 5B9 variant VH5/VK2 (antibody, V domains shown)
VH: B1 VH with I37V, K38R, I48M, T79A
VL: B1 VL
B11: humanized 5B9 variant VH5/VK1 (antibody, V domains shown)
VH: B1 VH with I37V, K38R, I48M, T79A
VL: B1 VL with Q3M, S10F, S63T, P80S

One assay deals with T1, human PVR (SPR of the humanized …). As to the kind of experiment: SPR.
Broadly, the Kd is the concentration at which binding is half-saturated. Read a high Kd as weaker binding. In turn, B1 displayed a dissociation constant (Kd) of 4.32 nM.
The same measure, in the same setting: for B2 the value was 4.17 nM; for B3, 69.3 nM; for B4, 4.03 nM.
As to B5, the Kd was 5.14 nM.
The same measure, in the same setting: as for B6, the figure is 5.11 nM.
The molecule B7 had a Kd of 4.67 nM.
Still for that read-out and setting: as for B8, the figure is 5.42 nM.
Same read-out and setting: for B9 the value was 4.5 nM; for B10, 5.68 nM.
In the case of B11, the dissociation constant Kd was 5.91 nM.

A further assay shares this target. Nature of the assay: SPR; relative to N56E VH0/Vκ0. In general terms: SPR reads the build-up and loss of mass on a sensor chip optically.
As to B1, the “Relative KD” value stood at 0.78.
On the same count and under the same terms, for B2 the value was 0.75; for B3, 12.5.
As for B4, the “Relative KD” value is 0.73.
On the same count and under the same terms, for B5 the value was 0.93.
For B6, the “Relative KD” value stood at 0.92.
The same measure, in the same setting: as for B7, the figure is 0.84; as for B8, 0.98.
For B9, the “Relative KD” value was determined as 0.81.
With B10, the “Relative KD” value amounted to 1.03.
B11: the “Relative KD” value amounted to 1.07.

Another assay concerns the target human poliovirus receptor (PVR, CD155) expressed on cells (human) (UniProt P15151). As to the kind of experiment: flow cytometry, binding to PVR-expressing HEK 293 cells. In general terms: A flow cytometer gives signals particle by particle.
The EC50 is the concentration that produces a half-maximal response. High values mean lower potency in that assay, low ones higher potency in that assay. In turn, B1 registered an EC50 of 0.52 nM.
B5: the EC50 was determined as 0.6 nM.
B6 registered an EC50 of 0.59 nM.
With B7, the EC50 is 0.64 nM.
Still for that read-out and setting: as for B8, the figure is 0.53 nM.
Still for that read-out and setting: for B10 the value was 0.64 nM.

A further assay has the same target. Nature of the assay: flow cytometry, binding to PVR-expressing HEK 293 cells; relative to N56E VH0/Vκ0.
For the molecule B1, the Relative EC50 was determined as 0.66.
The molecule B5 had a Relative EC50 of 0.76.
In turn, B6 displayed a Relative EC50 of 0.75.
Same read-out and setting: for B7 the value was 0.81; for B8, 0.68; for B10, 0.82.
